# Experiment: soluble on expression in E. coli; label from the status in PepcDB or PDB records
row,Sequence,soluble on expression in E. coli
1,MTDKQYSLDDIRLRLNELDDQLLNLLSERRKMSIEVAKSKVETAKPVRDPAREQQLLVKLINAGKEKYQLDPQYITKIFHTIIEDSVLLQQSYLQNLANPQSRKPLARVAFLGAKGSYSHLATREYFSRKNTELIELNCDHFKEVARTVESGHADYGVLPIENTSSGSINEVYDLLQHTTLYIVGELTQPIEHCLVATQEIRLEDLKVLYSHPQPHQQCSEFLSRLKGVKLESCASTADAMKKVQELNRADVAAIGNSASGKLYGLQPIQGNIANQTENHTRFIVVARKPVDVSPQIPAKTTLIMSTSQEAGSLVSTLLVLQRYGINMTKLESRPIMGNPWEEMFYVDLEAHIDSDEMQQALAELTQLTRHLKVLGCYPSENVKPTQVKFI,not soluble
2,MTDLQVFEMNPQLNFPISDKTIYQMGFNSSAAQPSAANYVTESNSLTNHLQILDLLNPQTSSGSDDKKRQFFADLMTPHYEKQAEIEKKIDDLSEVVHQFIQSQQSLNKLILEKCLGRIPSPRMTSPHQPEDNSIDDMDPPVQEEIEEKIENDTFGQNEVTVNQQPINNPMPVYPVPISHEPANLHSPIRNRSISPEKMDTTGNSGAGMSVRDFLKNTMTVQKADEKILEEELERERDEAAQTVRYNKFRVRNRPKKYKRSAVTFTSSLEAATSSSSSTIPHQDQGPTFSTHSTIGNSSDTSQLMEQLDQSQNDSIDIEENVYQPIVVPCVQRAPELDLTLMQPVFSTASSYVLNSSALDPTTHQAQSSLSALTDSKFQTDPNNLWKAVDGVSQLLVDAPSLLESDLRSFTDHSHHSSFLPFVANHEPLHRSAFLPPQYHKDRRIHQQMDSHLSDTLRNL,not soluble
3,MTDMKVLKMEVMRYNPERDSEPHFETFEVPYDEQTSLLDALGYIKDNLAPDLSYRWSCRMAICGSCGMMVNKVPKLACKTFLREYTAGMKVEALGNFPIERDLVVDMTHFIESLEAIKPYIIGNERLPKDGPNKQTPAQMAKYHQFSGCINCGLCYAACPQFGLNPEFIGPAAITLAHRYNLDNRDHGKKERMPQLNGKNGVWSCTFVGYCSEVCPKHVDPAAAIQQGKIDSAKDFMIAMLKPQ,not soluble
4,MTDNQSKSLELILTDSDDAHMLLGTHDKHIKFLEENTHVTINSRGEVIQLIGESSEVELVASVLRALQTLIQRGIKVHTPDVVSALKMAKAGNLEAFIAMYEEEIMKDHHGRAIRIKNVGQKKYIDAVKTHDVIFGVGPAGTGKTFLAVVMAVAALKKGEVQKIILTRPAVEAGESLGFLPGDLKEKVDPYLRPVYDALYQIFGMDHTNRLMERGVIEIAPLAYMRGRTLDDAFVILDEAQNTTVAQMKMFLTRLGFSSKMIVNGDTSQIDLPRGVTSGLVNAERTLKDIEKIAFVNFEASDVVRHPVVAQIIQAYEKEQQKHS,not soluble
5,MTDRLIIQGGKKLSGTLQVDGAKNSAVALIPAAILAESEVVLEGLPDISDVYTLYDILEELGGSVRYDNKTAIIDPTDMLSMPLPSGNVKKLRASYYLMGAMLGRFKKAVIGLPGGCYLGPRPIDQHIKGFEALGAKVTNEQGAIYLRADELKGARIYLDVVSVGATINIMLAAVRAKGKTVIENAAKEPEIIDVATLLTNMGAIIKGAGTDTIRITGVDHLHGCHHTIIPDRIEAGTFMVLAAASGKGIRIENVIPTHLEGIIAKLTEMGVPMDIEEDSIFIGEVENIKKVDIKTYAYPGFPTDLQQPLTALLTRAEGSSVITDTIYPSRFKHIAELERMGGKFKLEGRSAVISGPAKLQGSKVTATDLRAGAALVIAGLLAEGRTEIHGVEHIERGYSKIIEKLSAIGADITRSSTAETNI,not soluble
6,MTDTAEKYEAVVVGCGPGGAAAAATLARNGVETLVLERGVDAGSKNVSGGLIYAEESAPYTIDGLFPDFREEAAERPVTENLIHNIAGDRVKSFDIGDLHHHDTAWADAVLRRKMDSWLAQQVHERTRETGGGLLTEVHVTGLLRERGEIVGVTTEELDPIKADIIVAADGVNSELARDAGLMDWDEPEEWFQGVKAVVDMEPEVINDRFDVASDDGAAHLFSGDLFDGVRGGGFLYTNESSLSIGTVFHLDSIAEERAEPHELLDSLLTHPLMAQWLGDEYDEREYSAKLVPDSKKAAHPSPHEDRLVLVGDAAGQMQAQGPIIKGMNHAVTAGALAAEAFADARARGDPSQAGKLYEKKLHDEGVMDKLRPTGYRVFGQLGELGPVDNLSNAIAESAVGRFGVRAAAGLLERAYSSPRLVSMIPDTKLPYVTLPTVIAEELGEPVTDENTVSPPDLGDRIGDLTYDVGDPHIELVDKSFEASGTAVTACPVSAEDFGGGCYRDEMVQTNGSEEHLVSLDTQPCVECGTCAIVADTEWEHPAGGKGVEFNQGLEHHHHHH,not soluble
7,MTDTIKIYHNPRCSKSRDTLNLLKSNGVEPEVVLYLDTPADAATVRELLRMLGMSSARELMRQKEDLYKTLHLADSELSEEALIQALVEHPKLMERPIVVANGQARIGRPPEQVLDILG,not soluble

# Source: the DeepSol protein solubility set
